Measured values: patent US20090004206A1 (ALETHIA BIOTHERAPEUTICS, published 2009)

Target: T1, Flag-tagged mouse v-ATPase a4 subunit fragment (amino acids 1-388) (mouse, UniProt Q920R6 1-388)
T1 construct: range 1-388; Expressed in 293FT cells from pCMX-Flag/v-ATPase-a4 and used as cell lysate; also called Flag-tagged a4; not shown: Flag tag of vector pCMX-Flag
Assay: GST pull-down from 293FT lysate, anti-Flag Western blot
Description: ID. NO. 89 (d2) (SEQ ID NO.:154) was cloned into the prokaryotic expression vector, pGEX-2T (Pharmacia, GE Healthcare), expressed as a GST fusion protein in E. coli and purified with glutathione beads. In parallel, cDNA fragments of mouse v-ATPase-a3 (amino acids 1-385) and v-ATPase a4 (amino acids 1-388) were cloned into the eukaryotic expression vector, pCMX-Flag in order to express a Flag-tagged a3 subunit or a4 subunit in mammalian cells. The pCMX-Flag/v-ATPase-a3 and pCMX-Flag/v-ATPase-a4 recombinant plasmids were transfected in 293FT cells and cell lysates were generated in which, the v-ATPase-a3 and v-ATPase-a4 FLAG-tagged polypeptides were readily detected with an anti-Flag antibody (FIG. 21B, II, upper panel).
In order to measure the interaction between d2 (SEQ. ID. NO. 89) and a3 or a4, equal amounts of 293FT lysates containing either Flag-tagged a3 or a4 were incubated with purified GST or GST-d2 at 4° C. for 90 minutes under mild agitation. After washing, the protein mixes were separated on a SDS-PAGE and transferred to PVDF membrane. […] Clearly, only the a3 fragment could be detected in the GST-d2 reactions compared to the GST reactions indicating a specific interaction between d2 and a3 (FIG. 21B, I-a3, upper panel) but not between d2 and a4 (FIG. 21B, I-a4, upper panel). […]

T1 sequence (Q920R6 1-388): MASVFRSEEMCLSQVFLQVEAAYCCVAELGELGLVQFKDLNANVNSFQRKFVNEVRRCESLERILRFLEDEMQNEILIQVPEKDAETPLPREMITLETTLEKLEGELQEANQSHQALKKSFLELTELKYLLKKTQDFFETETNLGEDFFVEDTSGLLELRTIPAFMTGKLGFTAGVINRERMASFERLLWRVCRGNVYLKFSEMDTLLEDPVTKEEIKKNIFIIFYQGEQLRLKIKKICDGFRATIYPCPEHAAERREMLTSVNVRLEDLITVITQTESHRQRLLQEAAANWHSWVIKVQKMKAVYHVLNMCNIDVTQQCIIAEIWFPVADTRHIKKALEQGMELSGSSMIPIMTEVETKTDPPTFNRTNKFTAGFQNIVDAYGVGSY

B1: GST-d2 (GST fusion protein of the human v-ATPase d2 subunit, polypeptide SEQ ID NO.:154 encoded by SEQ. ID. NO. 89) (other)
chain: not shown
notes: also called AB0179 human orthologue; not shown: glutathione S-transferase (GST) tag of the prokaryotic expression vector pGEX-2T (Pharmacia, GE Healthcare)
B1: no binding.
